Source: patent US20090257987A1, “Method of generating dopamine-secreting cells” (Ramot At Tel Aviv University Ltd., priority 2008, published 2009)

How the values were obtained:
[1] = test system: human MSCs; assay: Real-time quantitative PCR of Nurr1 and GAD67; type: cell-based; details: real-time PCR versus GAPDH
Description: Induction of differentiation: The differentiation protocol was composed of 2 steps. In step 1, cells were transferred to serum-free medium (DMEM) supplemented with 2 mM glutamine, 100 μg/ml streptomycin, 100 units/ml penicillin, 12.5 units/ml nystatin (Biological Industries), N2 supplement (Invitrogen, New Haven, Conn.) and 20 ng/ml fibroblast growth factor 2 and epidermal growth factor (both from R&D Systems, Minneapolis, Minn.) for 48-72 hours. […]
RNA isolation and cDNA synthesis: Total RNA was isolated by a commercial TriReagent (Sigma). The amount and quality of RNA was determined with the ND-1000 spectrophotometer (NanoDrop, Wilmington, Del.). […]
Real-time quantitative reverse transcription polymerase chain reaction (PCR): Real-time quantitative PCR of the desired genes was performed in an ABI Prism 7700 sequence detection system (Applied Biosystems, Foster City, Calif.) using Syber Green PCR Master Mix (Applied Biosystems) and the following primers: glyceraldehyde-3-phosphate dehydrogenase (GAPDH) sense CGACAGTCAGCCGCATCTT (SEQ ID NO: 1), GAPDH antisense […] […] For each gene, the specificity of the PCR product was assessed by verifying a single peak in the melting curve analysis. […] Quantitative calculations of the gene of interest versus GAPDH were done according to the ΔΔCT method, as instructed in the user bulletin of the ABI Prism 7700 sequence detection system (updated 10/2001).

[2] = test system: human MSCs; assay: HPLC analysis of dopamine secretion; type: cell-based
Description: Induction of differentiation: The differentiation protocol was composed of 2 steps. In step 1, cells were transferred to serum-free medium (DMEM) supplemented with 2 mM glutamine, 100 μg/ml streptomycin, 100 units/ml penicillin, 12.5 units/ml nystatin (Biological Industries), N2 supplement (Invitrogen, New Haven, Conn.) and 20 ng/ml fibroblast growth factor 2 and epidermal growth factor (both from R&D Systems, Minneapolis, Minn.) for 48-72 hours. In step 2, the medium was changed to Basic induction medium containing Neurobasal, B27 (both from Invitrogen), in addition to 1 mM dibutyryl cyclic AMP (dbcAMP), 3-isobutyl-1-methyl-xanthine (IBMX), and 200 μM ascorbic acid (all from Sigma, St Louis, Mo.). The following factors were added to the Basic induction medium in different combinations: brain-derived neurotrophic factor (BDNF; 50 ng/ml), glial-derived neurotrophic factor (GDNF;10 ng/ml), neurturin (100 ng/ml), neurotrophin 3 (NT3; 50 ng/ml), and fibroblast growth factor 8 (FGF8; 100 ng/ml (all from Cytolab, Rehovot, Israel); transforming growth factor β3 (TGFβ3; 2 ng/ml), sonic hedgehog (Shh; 500 ng/ml, both from R&D); estrogen (0.1 μM, Sigma); and all-trans-retinoic acid (RA; 0.1 μM, Sigma). High performance liquid chromotography (HPLC): Reverse-phase HPLC coupled with an electrochemical detector (ECD) was used to measure dopamine levels. […]

B1: brain-derived neurotrophic factor (protein, UniProt P23560 19-247, looked up)
Neurotrophic factor BDNF …: APMKEANIRGQGGLAYPGVRTHGTLESVNGPKAGSRGLTSLADTFEHVIEELLDEDQKVRPNEENNKDADLYTSRVMLSSQVPLEPPLLFLLEEYKNYLDAANMSMRVRRHSDPARRGELSVCDSISEWVTAADKKTAVDMSGGTVTVLEKVPVSKGQLKQYFYETKCNPMGYTKEGCRGIDKRHWNSQCRTTQSYVRALTMDSKKRIGWRFIRIDTSCVCTLTIKRGR
notes: brain-derived neurotrophic factor (50 ng/ml) added to the Basic induction medium
For B1, the GAD67 expression [1] was “down regulation”, the Nurr1 expression ([1]; compared to untreated MSCs) was “significant upregulation” and the “dopamine secreted to the depolarization buffer (mean)” value ([2]; 56 mM KCL in HBSS for 30 minutes) was 1127.86 pg/ml of dopamine per 10^6 cells. The “dopamine secreted to the conditioned media (mean)” value ([2]; differentiation medium) was 673.69 pg/ml of dopamine per 10^6 cells.
